Laboratory results from patent US20250122303A1 (HUMMINGBIRD BIOSCIENCE PTE, published 2025).
Like-named read-outs stand apart in the source and are kept apart here.

Experiments:
moFcgRIV = molecular target: T1, moFcgRIV; assay: Bio-Layer Interferometry (determined as described in Example 7)
T1 construct: also called CD16-2; mFcγRIV
T1 chain: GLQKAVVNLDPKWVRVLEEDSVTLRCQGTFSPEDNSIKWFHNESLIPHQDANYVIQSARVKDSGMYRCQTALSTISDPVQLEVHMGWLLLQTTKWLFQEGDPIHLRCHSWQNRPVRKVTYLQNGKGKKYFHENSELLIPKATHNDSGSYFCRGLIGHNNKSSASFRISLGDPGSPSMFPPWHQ

human HER3 polypeptide [1] = molecular target: T2, human HER3 polypeptide (human, UniProt P21860 20-643); assay: ELISA; plate coated with target polypeptide, antibody serially diluted, absorbance 450 nm
T2 construct: Recombinant antigen of the ELISAs; also called human HER3 (Sino Biological Inc.); human antigen HER3
Description: The antibodies were analysed for their ability to bind to human HER3 polypeptide as well as human HER1 (EGFR) and human HER2 (Sino Biological Inc., China).
(§1) ELISAs were carried out according to standard protocols. Plates were coated with 0.1 μg/ml of target polypeptide in phosphate-buffered saline (PBS) for 16 h at 4° C. After blocking for 1 h with 1% BSA in Tris buffer saline (TBS) at room temperature, the anti-HER3 antibody was serially diluted with the highest concentration being 10 μg/ml, and added to the plate. Post 1 h incubation at room temperature, plates were washed three times with TBS containing 0.05% Tween 20 (TBS-T) and were then incubated with a HRP-conjugated anti-His antibody (Life Technologies, Inc., USA) for 1 h at room temperature. After washing, plates were developed with colorimetric detection substrate 3,3′,5,5′-tetramethylbenzidine (Turbo-TMB; Pierce, USA) for 10 min. The reaction was stopped with 2M H₂SO₄, and OD was measured at 450 nm.

human HER3 polypeptide [2] = molecular target: T2, human HER3 polypeptide; assay: as above; remark: listed apart in the source
Description: as §1

mouse HER3 = molecular target: T3, mouse HER3 (mouse, UniProt Q61526 20-641); assay: as above
T3 construct: also called mouse homologue of HER3 (Sino Biological Inc.); M. musculus HER3
Description: as §1

rat HER3 = molecular target: T4, rat HER3 (rat, UniProt Q62799 20-641, limits assumed); assay: as above
T4 construct: also called rat homologue of HER3 (Sino Biological Inc.); R. norvegicus HER3
Description: as §1

cynomolgus macaque HER3 = molecular target: T5, cynomolgus macaque HER3 (cynomolgus macaque, UniProt G7PIG5 20-643); assay: as above
T5 construct: also called monkey homologue of HER3 (Sino Biological Inc.); HER3 cyno
Description: as §1

His-tagged human HER3 [3] = molecular target: T6, His-tagged human HER3 (human, UniProt P21860 20-643); assay: BLI (Octet QK384), antibody on anti-human IgG capture tips, His-tagged human HER3 in solution, global one-site fit
T6 construct: Antigen of the BLI experiments and of the HER2-Fc dimerisation ELISA; also called HER3 His; not shown: His tag
Summary of the method: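 Anti-HER3 IgG1 antibodies (25 nM) were captured on anti-human IgG sensor tips and binding to human HER3 was measured at 25° C with agitation at 1000 rpm.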

His-tagged human HER3 [4] = molecular target: T6, His-tagged human HER3; assay: plate ELISA dimerisation assay; HER2-Fc coated, constant HER3 His and NRG, antibody varied; blocked partner HER2-Fc
Description: Plate-based ELISA dimerisation assays were carried out according to standard protocols. Plates were coated with 1 μg/ml HER2-Fc protein. […] Plates were then washed and incubated for 1 hour with secondary anti-HIS HRP antibody. […] The absorbance was read at 450 nm.

[5] = molecular target: T7, recombinant biotinylated human HER3 protein (human, UniProt P21860 20-643, limits assumed, biotinylated, site not stated); assay: plate ELISA dimerisation assay; human EGFR-His coated, constant HER3-biotin and NRG, antibody varied; blocked partner EGFR-His
T7 construct: also called HER3-biotin
Description: Plate-based ELISA dimerisation assays were performed according to standard protocols. Plate was coated with 1 μg/ml human EGFR-His. […] Plates were then washed and incubated for 1 hour with secondary anti-avidin HRP antibody. […] The absorbance was read at 450 nm.

[6] = molecular target: T8, human HER3 expressed on cells (HEK293 HER3 O/E cells) (human, UniProt P21860 20-1342); assay: flow cytometry, HEK293 cells overexpressing human HER3 (293_OE HER3), 20 ug/ml antibody, FITC anti-Fc secondary; same antibody on 293 cells: 2.78; unstained 293: 0.14
T8 construct: Also used here for HER3 on U2OS cells of the PathHunter kit and on cancer cell lines; also called HEK293 cells transfected with vector encoding human HER3; human HER3-expressing cells

His-tagged human HER3 [7] = molecular target: T6, His-tagged human HER3; assay: BLI (Octet QK384), antibody on anti-human IgG capture tips, His-tagged human HER3 in solution, global 1:1 fit, R^2 = 0.9902, kon Error 1.12E+04; Response 0.1471 / 0.2882 / 0.3968 / 0.5458 at 35 / 69 / 139 / 278 nM
Description: The anti-HER3 antibody clones in IgG1 format were analysed for binding affinity to human HER3. Bio-Layer Interferometry (BLI) experiments were performed using the Octet QK384 system (ForteBio). anti-Human IgG Capture (AHC) Octet sensor tips (Pall ForteBio, USA) were used to anti-HER3 antibodies (25 nM). All measurements were performed at 25° C. with agitation at 1000 rpm. […] Sensograms were referenced for buffer effects and then fitted using the Octet QK384 user software (Pall ForteBio, USA). Kinetic responses were subjected to a global fitting using a one site binding model to obtain values for association (Kₒₙ), dissociation (Koff) rate constants and the equilibrium dissociation constant (KD). Only curves that could be reliably fitted with the software (R²>0.90) were included in the analysis.

T4 sequence (Q62799 20-641 limits assumed): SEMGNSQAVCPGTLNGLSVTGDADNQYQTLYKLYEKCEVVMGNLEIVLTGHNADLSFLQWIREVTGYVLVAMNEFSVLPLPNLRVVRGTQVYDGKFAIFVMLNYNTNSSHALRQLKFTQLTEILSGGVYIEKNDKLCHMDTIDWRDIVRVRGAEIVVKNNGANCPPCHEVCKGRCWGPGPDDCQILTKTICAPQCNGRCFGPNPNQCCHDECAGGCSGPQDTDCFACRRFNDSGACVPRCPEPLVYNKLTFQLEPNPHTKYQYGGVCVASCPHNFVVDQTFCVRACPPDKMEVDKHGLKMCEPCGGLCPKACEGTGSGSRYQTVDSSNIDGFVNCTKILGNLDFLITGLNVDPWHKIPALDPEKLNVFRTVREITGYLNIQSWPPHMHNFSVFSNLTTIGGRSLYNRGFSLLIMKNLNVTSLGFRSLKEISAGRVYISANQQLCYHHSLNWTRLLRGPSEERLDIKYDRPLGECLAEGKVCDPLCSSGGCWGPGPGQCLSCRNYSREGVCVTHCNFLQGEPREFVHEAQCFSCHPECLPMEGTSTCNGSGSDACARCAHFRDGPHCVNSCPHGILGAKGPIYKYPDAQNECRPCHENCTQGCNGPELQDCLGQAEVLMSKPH
T3 sequence (Q61526 20-641 limits assumed): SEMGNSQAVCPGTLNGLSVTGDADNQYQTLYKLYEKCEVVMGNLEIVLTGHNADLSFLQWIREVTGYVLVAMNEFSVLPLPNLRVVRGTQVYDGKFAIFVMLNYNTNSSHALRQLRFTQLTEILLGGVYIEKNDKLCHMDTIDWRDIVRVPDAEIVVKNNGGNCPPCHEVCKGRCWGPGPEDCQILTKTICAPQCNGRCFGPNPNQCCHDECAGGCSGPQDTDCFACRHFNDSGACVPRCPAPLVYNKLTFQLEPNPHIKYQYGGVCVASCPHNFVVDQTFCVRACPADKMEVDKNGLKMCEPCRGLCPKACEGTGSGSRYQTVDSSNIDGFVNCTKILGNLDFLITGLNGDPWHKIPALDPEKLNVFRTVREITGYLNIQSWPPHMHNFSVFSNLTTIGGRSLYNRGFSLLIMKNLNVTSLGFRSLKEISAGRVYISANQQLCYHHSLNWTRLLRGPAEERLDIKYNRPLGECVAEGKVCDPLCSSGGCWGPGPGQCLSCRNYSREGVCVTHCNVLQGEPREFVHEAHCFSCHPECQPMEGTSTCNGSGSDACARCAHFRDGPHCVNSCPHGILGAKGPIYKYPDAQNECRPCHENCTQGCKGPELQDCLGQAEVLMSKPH
T5 sequence (G7PIG5 entry or part of it): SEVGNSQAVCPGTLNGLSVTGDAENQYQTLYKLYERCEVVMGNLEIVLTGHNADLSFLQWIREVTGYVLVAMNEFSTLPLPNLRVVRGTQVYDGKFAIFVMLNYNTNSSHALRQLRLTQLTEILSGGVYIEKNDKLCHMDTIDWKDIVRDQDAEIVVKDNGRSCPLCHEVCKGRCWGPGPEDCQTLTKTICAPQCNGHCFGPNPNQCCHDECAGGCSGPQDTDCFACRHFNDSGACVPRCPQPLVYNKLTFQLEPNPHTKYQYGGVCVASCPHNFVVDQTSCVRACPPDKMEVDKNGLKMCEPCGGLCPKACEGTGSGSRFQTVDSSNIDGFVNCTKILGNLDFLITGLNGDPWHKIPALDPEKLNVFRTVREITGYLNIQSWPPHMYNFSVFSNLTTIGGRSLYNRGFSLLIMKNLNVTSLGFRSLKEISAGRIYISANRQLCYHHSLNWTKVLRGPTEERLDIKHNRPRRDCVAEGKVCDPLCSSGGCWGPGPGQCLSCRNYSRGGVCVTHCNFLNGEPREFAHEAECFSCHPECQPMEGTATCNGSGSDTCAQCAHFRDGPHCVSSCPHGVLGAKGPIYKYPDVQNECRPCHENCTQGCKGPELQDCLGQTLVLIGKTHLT

Kd (moFcgRIV): 1810 nM | EC50 (human HER3 polypeptide [1]): 0.0144 nM | EC50 (human HER3 polypeptide [2]): 0.0144 nM | EC50 (mouse HER3): 0.0332 nM | EC50 (rat HER3): 0.0303 nM | EC50 (cynomolgus macaque HER3): 0.0258 nM | Kd (His-tagged human HER3 [3]): 0.0726 nM | IC50 (His-tagged human HER3 [4]): 78.8 nM | IC50 [5]: 4.78 nM | % Parent (HER3 positive) [6]: 44.6% | kon (His-tagged human HER3 [7]): 297000 M⁻¹ s⁻¹
B1: 10D1F.FcA (anti-HER3 clone 10D1_c89 IgG1) (antibody)
heavy: not shown
light: DIQMTQSPSSVSASVGDRVTITCKASQIVGSNVAWYQQKPGKAPEPLIYSASYLYSGVPSRFSGSGSGTDFTLTISSLQPEDFATYYCQQYSSHPLTFGQGTKLEIKRTVAAPSVFIFPPSDEQLKSGTASVVCLLNNFYPREAKVQWKVDNALQSGNSQESVTEQDSKDSTYSLSSTLTLSKADYEKHKVYACEVTHQGLSSPVTKSFNRGEC
notes: also called 10D1F.A; HMBD-001
